System: lipopolysaccharide (LPS) induced fever model in SD rats
Assay: Lipopolysaccharide (LPS) induced fever in SD rats
Type: in vivo
Conditions: for Body temperature 2 hours after modeling / Body temperature 4 hours after modeling / Body temperature 6 hours after modeling / Body temperature 8 hours after modeling: LPS 20 μg/kg i.p.; for Body temperature 2 hours after modeling: model group 37.6 ± 0.1; for Body temperature 4 hours after modeling: model group 37.8 ± 0.1; for Body temperature 6 hours after modeling / Body temperature 8 hours after modeling: model group 37.8 ± 0.2
Procedure: • Animals: 230-260 grams of male SD rats; • Drugs: lipopolysaccharide (LPS, SIGMA L-2880), aspirin (SIGMA A2093), protein BD-3; Instruments: electronic balance (SARTORIUS BP121S type), electronic clinical thermometer (CITIZEN CT-513W type). • Experiment grouping: • Normal control group; • Model group: lipopolysaccharide fever model; • Positive control group: Aspirin 300 mg/kg group; • Protein BD-3, 10 mg/kg group, 50 mg/kg group. • Method: the method of intraperitoneal injection of Lipopolysaccharide to replicate rat fever model.
Preparation of experimental animals: After the experimental animals adapt to the experimental environment (temperature 22° C.±2° C., relative humidity 50%±2%) for 1 day. Pre-adaptation to measure rectal temperature at 8:00 and 15:00, rats were fasted and water was taken freely 12 h before experiment, and let the animal to empty its feces before measuring the rectal temperature. Apply petroleum jelly to the electronic thermometer probe before each temperature measurement. Insert the rat rectum 2 cm (can be marked at 2 cm to ensure that the depth of each insertion is consistent), and record the body temperature after the reading is stable.
Intraperitoneal injection of lipopolysaccharide to replicate rat fever model: The body temperature of the rats was measured before modeling. Qualified rats with a body temperature of 36.2-37.3° C. were selected and randomly divided into groups with 8 rats in each group. After oral administration of aspirin and different doses of protein BD-3, lipopolysaccharide (20 μg/kg, 2 ml/kg) was injected intraperitoneally immediately, and the normal control group was injected intraperitoneally with an equal volume of normal saline. The body temperatures of the rats were monitored after 2 hours for a total of 8 hours.
According to the body temperature measured at each time point on the day of the experiment, calculate the mean, standard deviation and standard error of the body temperature of each group of rats. The data of each group was compared with TTEST, and P<0.05 was considered as a significant difference.

B1: BD-3: recombinant keratin, amino acid sequence SEQ ID NO:1, expressed in E. coli, band around 43 kD; tested material prepared in Example 4 (protein, listed as Bos taurus)
chain: MSYSCCLPNLSFRSSCSSRPCVPSSCCGTTLPGACNIPANVGSCNWFCEGSFNGSEKETMQFLNDRLASYLEKVRQLERDNAELESRILERSQQKILANKAENARLVVQIDNAKLAADDFRTKYQTELGLRQLVESDINGLRRILDELTLCKSDLEAQVESLKEELICLKQNHEQEVNTLRSQLGDRLNVEVDAAPTVDLNRVLNETRAQYEALVETNRRDVEEWYIRQTEELNKQVVSSSEQLQSYQAEIIELRRTVNALEVELQAQHNLRDSLENTLTETEARYSCQLAQVQGLIGNVESQLAEIRSDLERQNQEYQVLLDVRARLECEINTYRGLLDSEDCKLPCNPCATTNASSVGSCVTNPCTPCGPRSRFGPCNTFGC
Question: B1 was tested. Which “Body temperature 2 hours after modeling” value (BD-3 10 mg/kg oral) did it give?
Answer: The value was 37.6 ± 0.1 °C.

Question: What about the “Body temperature 4 hours after modeling” value (BD-3 10 mg/kg oral) of the same molecule?
Answer: The value was 37.9 ± 0.2 °C.

Question: And the “Body temperature 6 hours after modeling” value (BD-3 10 mg/kg oral)?
Answer: The value was 37.9 ± 0.2 °C.

Question: What about the “Body temperature 8 hours after modeling” value (BD-3 10 mg/kg oral) of the same molecule?
Answer: Its value is 37.6 ± 0.2 °C.

Question: And the “Body temperature 2 hours after modeling” value (BD-3 50 mg/kg oral)?
Answer: Its value is 37.2 ± 0.2 °C.

Question: And the “Body temperature 4 hours after modeling” value (BD-3 50 mg/kg oral)?
Answer: The value was 37.3 ± 0.2 °C.

Question: And the “Body temperature 6 hours after modeling” value (BD-3 50 mg/kg oral)?
Answer: Its value is 37.7 ± 0.3 °C.

Question: And the “Body temperature 8 hours after modeling” value (BD-3 50 mg/kg oral)?
Answer: Its value is 37.6 ± 0.2 °C.

Question: And the “Effect on body temperature of model rats (in words)” value (BD-3 50 mg/kg, at 2 hours and 4 hours after modeling, P<0.05 vs model group)?
Answer: The value was “can reduce the body temperature of model rats”.

Question: What about the “Summary: antipyretic effect in LPS fever model (in words)” value (summary statement, no dose given) of the same molecule?
Answer: The value was “has a significant effect of reducing body temperature rise at 2 hours and 4 hours after modeling”.

Source: patent US20240124556A1, “KERATIN BD-3, PREPARATION METHOD THEREFOR AND PHARMACEUTICAL COMPOSITION AND USE THEREOF” (INSTITUTE OF MATERIA MEDICA, CHINESE ACADEMY OF MEDICAL …, priority 2019, published 2024)
